Data published in the DeepSol protein solubility set.

test: soluble on expression in E. coli; label from the status in PepcDB or PDB records

| Sequence | soluble on expression in E. coli |
| --- | --- |
| MTMHETTDRLFEIAKEQGVLKPADIAERLNISQQALKNWESRGIAAKALPEVAKAFGVSETWLRTGEGSRTAPVLIDPDLPHEVKDIHRPMTWSSNDPLPDDDYVFVPYLKESCFKGGVGTYEIPDYNGYRLPFGKSTLKRKGINPDNVFCCTLTGDSMEEKIAEDAAIAVDTGETAIRDGKIYAFAQDGMFRVKYLIRQPGNSVLIRSHNSGFYGDENAPLDSLTVIGRVFWWSVLD | not soluble |
| MENFLHKWFASEYDLYEEDLEKASALVNSHNIRTVVNVMFQHPIFTVNMMAALTSLPEATVRRYLNRFEEQQLIFSDGRMRSKTYYYYNLLDQLR | not soluble |
| MGSDKIHHHHHHVGTGDGNAIWPIRSVHLIGAIYPHILEELMLNTVILYSTVDGQTLAICQKIKQILVEQGEQVSVVNLAEVEADDLASVDKVVIGASIRYGKHRPELFKFVEQHKVLLDTKHNSFFSVNVVARKPEKNTPETNPYMQKFSNLSAWKPQLLGVFAGKIDYPRYRFFDKFMIRFIMWMTKGPTDTQGTFEFTDWGKVDDYAKQIAAQK | not soluble |
| AHHHHHHGSGASPVIVPVRCFTCGKVIGDKYYEFKRRVEAGEDPEKVLDDLGLERYCCRRMLLSHVELIDDIMHYRVY | not soluble |
| MAHHHHHHMCVRSMDPTKKGNENFPQRNVAIEEANFDSAFPAFNVHYNVEPKDWRHIELVEKEKQDFLLGIKKEIRLMQEDKNKINYVLNVQKQQLEELQFLLNRMKHFRRKSLIAEGEEQLKVDLLAMPRYLRTGTLFSVDTLGEENALRDFNELHNYSVDKSRLTTRGSFYHNLAEQWVG | not soluble |
| MGKGGNYVTVAASEVDELRRKNGEMEKAVEEMKKEMLQLWRRTQVAEEAEERLCSQLAELEAESLDQARDYHSRIIFLMNELSRLSSDSASASP | soluble |
| MRLPILIINFKAYGEAAGKRAVELAKAAERAARELGVNIVVAPNHLELGLVSQSVDIPVYAQGADVEAGGAHTAHVSLENIKEAGGSGVILNHSEAPLKLNDLARLVAKAKSLGLDVVVCAPDPRTSLAAAALGPHAVAVEPPELIGTGRAVSRYKPEAIVETVGLVSRHFPEVSVITGAGIESGDDVAAALRLGTRGVLLASAAVKAKDPYAKIVELAKPLSELR | soluble |
| MGSDKIHHHHHHMPINSFENYPMNWKPKRPSKGQILYKALAEQLEQDINNGFLLPGTKLPPQRELADFLDVNVSTISRAFKICEKKGLISGVTGSGTFVSYDTRSNLFLMSSNNKITFIEMGTMNPDFTLEEMNTLFKHIIKEIDFKTIFQYGQRDGAKWQKEAIAKLIYKAGLETTSDSLLPASGGQNAIVAILAGLFQHGDRIGVDPLTYPGIKTAAKMLGIQLIPIKQEDNEISEEGLLYACKNENIKGLYIIPDYQNPTTHIMSQNGRKMIANIASKYNLIVIEDAIHSLLNETHLNPVASYLPNQTIYITSLSKIIAPSLRLAYISTPKQYREALSSALYNINLSQSYFLTEIAYRMITSGEADKLINARRKSARRRNKIINQYLSGYNLLGNEECIFRWLILPDGIMAEKFEIQALKEGVQVYASERFAVGKEKPISAIRIAVCATESTEELKAGLSVLKRLLEEKK | not soluble |
| GVSKEEYKDVETAKKEKEQLGELMEPALGYVVKVPVSSFENKKVDISDIEVITNGNLDDVPYKANSSKYNYPDIKTKDSSLQYVRSGYVIDGEHSGSNEKGYVYYKGNSPAKELPVNQLLTYTGSWDFTSNANLNNEEGRPNYLNDDYYTKFIGKRVGLVSGDAKPAKHKYTSQFEVDFATKKMTGKLSDKEKTIYTVNADIRGNRFTGAATASDKNKGKGESYNFFSADSQSLEGGFYGPKAEEMAGKFVANDKSLFAVFSAKHNGSNVDTVRIIDASKIDLTNFSISELNNFGDASVLIIDGKKIKLAGSGFTNKHTIEINGKTMVAVACCSNLEYMKFGQLWQQAEGGKPENNSLFLQGERTATDKMPKGGNYKYIGTWDAQVSKENNWVATADDDRKAGYRTEFDVDFGNKNLSGKLFDKNGVNPVFTVDPKIDGNGFTGKAKTSDAGFALDSGSSRYENVKFNDVAVSGGFYGPTAAELGGQFHHKSENGSVGAVFGAKQQVKK | soluble |
| MSLKKAAIITIGSELLEGLILNKNAQFLCQELKNLGYRVVKVSTVGDDLISISEEVKTLLLKVDLLILTGGLGPTQDDLTRDAVAKVLNRSLKLNEELLSKIKEKIKKYHSEIPQNIERQALVIDGAEVLDNPVGSAPGQLLTVDGKIVILLPGPPRELIPMFNALKDRLRTPDALYQVVLKYYSIPEAVLEDLLKDILYSQNIVEVATMADHVEGVRLRLTTHMKNKEYLDEMVKKILDKTGEHLYGVNDEKMEEVVVRLLKDRKKTLAVAESCTGGMLSSLVVNVPGASEVFIGGVVAYSNDLKKHILGVREDTLKKHGAVSEECVQEMTEGLKKLTGADICVSISGIAGPSGGTPEKPVGTVFIDIFEHEHITMRYNFTGDRNMIRTRSAMMALENLRKYLKGRERVEGGSHHHHHH | soluble |
| MNTQSLMSSTHTIAASDPHIQVMGRTHINDDASLTFGYPGVSLSTIVAGSRLTAEMQSSNGNSWIDVIIDNHPPTSIKLDAQQQTVELFHFPNSGEHRVEIIHRSENWHGQVTLKQLTLTGTQFLPAPVLPQRKILVLGDSVTCGEAIDRVAGEDKNTRWWNARESYGMLTAKALDAQVQLVCWGGRGLIRSWNGKTDDANLPDFYQFTLGDTGQAPQWDHHRYQPDLIISAIGTNDFSPGIPDRATYINTYTRFVRTLLDNHPQATIVLTEGAILNGDKKAALVSYIGETRQQLHSNRVFYASSSHHPGDNSDAHPTKDQHAAMARELTPQLRQIMDWLEHHHHHH | soluble |
| MGSDKIHHHHHHMTFEPYPFERLRALLKEITPKKRGLDLGIGEPQFETPKFIQDALKNHTHSLNIYPKSAFEESLRAAQRGFFKRRFKIELKENELISTLGSREVLFNFPSFVLFDYQNPTIAYPNPFYQIYEGAAKFIKAKSLLMPLTKENDFTPSLNEKELQEVDLVILNSPNNPTGRTLSLEELISWVKLALKHDFILINDECYSEIYENTPPPSLLEACMLAGNEAFKNVLVIHSLSKRSSAPGLRSGFIAGDSRLLEKYKAFRAYLGYTSANAIQKASEAAWLDDRHAEFFRNIYANNLKLARKIFKNTLIYPYSFYVYLPVQNGENFAKTLYQNEGIITLPALYLGRNRIGADYVRLALVYDTPLLEKPLEIIETYRENHA | not soluble |
| MSSQLNHGTLPKISIVTPSYNQAQYLEATMRSILDQGYPDLEYIVMDGGSTDGSTEIIQKYSDRLTYWESAPDKGQADAIFRGFERATGEIFCYVNSDDLLLPGSLEMVGRWFREHPDEEWVVGGTILIDGLGIPIIRSRRGLPEADLGVKVTFKRLLLHNCGGFHQPASFWRRSAFEQAGGFDRTLRFCFDYDLFFRLAKRRPSGRIRSFLAAFRYHPASKTSTLESVFREENETLWRRYGRYLYSENQIRNFAHKQTTRDMWNNRIIKLGFYLKILNVSNAIGSLEHHHHHH | not soluble |
| MSQNLFNVEDYRKLAQKRLPKMVYDYLEGGAEDEYGVKHNRDVFQQWRFKPKRLVDVSRRSLQAEVLGKRQSMPLLIGPTALNGALWPKGDLALARAATKAGIPFVLSTASNMSIEDLARQCDGDLWFQLYVIHREIAQGMVLKALHTGYTTLVLTTDVAVNGYRERDLHNRFKIPPFLTLKNFEGIDLGKMDKANLEMQAALMSRQMDASFNWEALRWLRDLWPHKLLVKGLLSAEDADRCIAEGADGVILSNHGGRQLDCAISPMEVLAQSVAKTGKPVLIDSGFRRGSDIVKALALGAEAVLLGRATLYGLAARGETGVDEVLTLLKADIDRTLAQIGCPDITSLSPDYLQNEGVTNTAPVDHLIGKGTHAHHHHHH | soluble |
| GLVPRGSHMYAELSPGTKKVYTQVRYLDDYHWEIEGSTITGIHKKSNVKVVIDVAKNREEADSLAGKDVNGIHIVAIPDNGVFYIKNGSFVLTYRYLKATLADINDHIVWSGFKVVEDNGKLVQEDVYEYLGAALVNHIKNNALAGQDYIFWQFYKCEECGKYVDIENLEAHLREHGIKLHEKSEEHYEVFELNFREGKVFDKFGGEVPMDKFSSEAREFIKEVLS | soluble |
| MEGFPVRVRVDVRFRDLDPLGHVNNAVFLSYMELARIRYFQRISPDWLEEGHFVVARMEVDYLRPILLGDEVFVGVRTVGLGRSSLRMEHLVTANGESAAKGLGVLVWLEGGRPAPLPEAIRERIRALEGRPL | soluble |
